Source: the supplement of paper PMC9112550, “Optimization of the antimicrobial peptide Bac7 by deep mutational scanning” (BMC Biology, 2022)

Tested on: Escherichia coli TOP10
Assay: shrunken log2 fold change of peptide-encoding DNA abundance (4.5 h post-induction vs induction); higher = less antimicrobial activity (less host growth inhibition)
Conditions: time post-induction: 4.5 h; library: site-saturation at positions 5, 18, 19, 20
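Note: peptides expressed intracellularly from a pBAD plasmid library in pooled LB shake-flask culture, induced with 0.3% L-arabinose, DNA abundance read by NGS, three biological replicates, DESeq2 with apeglm shrinkage.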

RRIRVRPPRLPRPRPRPAQCPRP
shrunken log2 fold change: -0.0313

RRIRVRPPRLPRPRPRPAQGPRP
shrunken log2 fold change: 0.00544

RRIRVRPPRLPRPRPRPARIPRP
shrunken log2 fold change: 0.149

RRIRVRPPRLPRPRPRPATNPRP
shrunken log2 fold change: -0.301

RRIRVRPPRLPRPRPRPATWPRP
shrunken log2 fold change: 0.218

RRIRVRPPRLPRPRPRPAVQPRP
shrunken log2 fold change: -0.121

RRIRVRPPRLPRPRPRPAWDPRP
shrunken log2 fold change: 0.258

RRIRVRPPRLPRPRPRPAWPPRP
shrunken log2 fold change: 0.537

RRIRVRPPRLPRPRPRPCAVPRP
shrunken log2 fold change: 0.218

RRIRVRPPRLPRPRPRPCCAPRP
shrunken log2 fold change: 0.151

RRIRVRPPRLPRPRPRPCCIPRP
shrunken log2 fold change: -0.0914

RRIRVRPPRLPRPRPRPCCYPRP
shrunken log2 fold change: -0.272

RRIRVRPPRLPRPRPRPCDCPRP
shrunken log2 fold change: 0.00675

RRIRVRPPRLPRPRPRPCDTPRP
shrunken log2 fold change: 0.0884

RRIRVRPPRLPRPRPRPCDWPRP
shrunken log2 fold change: 0.192

RRIRVRPPRLPRPRPRPCEIPRP
shrunken log2 fold change: -0.0392

RRIRVRPPRLPRPRPRPCFAPRP
shrunken log2 fold change: 0.116

RRIRVRPPRLPRPRPRPCFNPRP
shrunken log2 fold change: -0.421

RRIRVRPPRLPRPRPRPCFWPRP
shrunken log2 fold change: -0.0218

RRIRVRPPRLPRPRPRPCHMPRP
shrunken log2 fold change: -0.19

RRIRVRPPRLPRPRPRPCKEPRP
shrunken log2 fold change: -0.335

RRIRVRPPRLPRPRPRPCKGPRP
shrunken log2 fold change: -0.117

RRIRVRPPRLPRPRPRPCKLPRP
shrunken log2 fold change: -0.453

RRIRVRPPRLPRPRPRPCLDPRP
shrunken log2 fold change: -0.135

RRIRVRPPRLPRPRPRPCLLPRP
shrunken log2 fold change: -0.072

RRIRVRPPRLPRPRPRPCMKPRP
shrunken log2 fold change: -0.104

RRIRVRPPRLPRPRPRPCNCPRP
shrunken log2 fold change: -0.0105

RRIRVRPPRLPRPRPRPCNGPRP
shrunken log2 fold change: 0.00489

RRIRVRPPRLPRPRPRPCNHPRP
shrunken log2 fold change: -0.588

RRIRVRPPRLPRPRPRPCPFPRP
shrunken log2 fold change: -0.314

RRIRVRPPRLPRPRPRPCPIPRP
shrunken log2 fold change: -0.296

RRIRVRPPRLPRPRPRPCQPPRP
shrunken log2 fold change: -0.236

RRIRVRPPRLPRPRPRPCQRPRP
shrunken log2 fold change: 0.0972

RRIRVRPPRLPRPRPRPCRQPRP
shrunken log2 fold change: -0.0134

RRIRVRPPRLPRPRPRPCSHPRP
shrunken log2 fold change: -0.246

RRIRVRPPRLPRPRPRPCSLPRP
shrunken log2 fold change: -0.201

RRIRVRPPRLPRPRPRPCSTPRP
shrunken log2 fold change: -0.127

RRIRVRPPRLPRPRPRPCTSPRP
shrunken log2 fold change: -0.145

RRIRVRPPRLPRPRPRPCTYPRP
shrunken log2 fold change: -0.0569

RRIRVRPPRLPRPRPRPCVQPRP
shrunken log2 fold change: 0.0444

RRIRVRPPRLPRPRPRPCWKPRP
shrunken log2 fold change: -0.00912

RRIRVRPPRLPRPRPRPCYFPRP
shrunken log2 fold change: -0.594

RRIRVRPPRLPRPRPRPCYQPRP
shrunken log2 fold change: -0.142

RRIRVRPPRLPRPRPRPCYSPRP
shrunken log2 fold change: 0.00378

RRIRVRPPRLPRPRPRPDAHPRP
shrunken log2 fold change: 0.21

RRIRVRPPRLPRPRPRPDAKPRP
shrunken log2 fold change: 0.0516

RRIRVRPPRLPRPRPRPDAVPRP
shrunken log2 fold change: 0.141

RRIRVRPPRLPRPRPRPDAWPRP
shrunken log2 fold change: 0.0757

RRIRVRPPRLPRPRPRPDERPRP
shrunken log2 fold change: 0.139

RRIRVRPPRLPRPRPRPDFSPRP
shrunken log2 fold change: -0.373

RRIRVRPPRLPRPRPRPDGTPRP
shrunken log2 fold change: -0.161

RRIRVRPPRLPRPRPRPDIFPRP
shrunken log2 fold change: -0.171

RRIRVRPPRLPRPRPRPDIKPRP
shrunken log2 fold change: -0.912

RRIRVRPPRLPRPRPRPDIPPRP
shrunken log2 fold change: -0.263

RRIRVRPPRLPRPRPRPDKHPRP
shrunken log2 fold change: -0.108

RRIRVRPPRLPRPRPRPDKTPRP
shrunken log2 fold change: -0.0309

RRIRVRPPRLPRPRPRPDMDPRP
shrunken log2 fold change: -0.154

RRIRVRPPRLPRPRPRPDNDPRP
shrunken log2 fold change: -0.232

RRIRVRPPRLPRPRPRPDNVPRP
shrunken log2 fold change: 0.171

RRIRVRPPRLPRPRPRPDPAPRP
shrunken log2 fold change: 0.142

RRIRVRPPRLPRPRPRPDPCPRP
shrunken log2 fold change: -0.0596

RRIRVRPPRLPRPRPRPDPSPRP
shrunken log2 fold change: 0.226

RRIRVRPPRLPRPRPRPDQDPRP
shrunken log2 fold change: 0.0425

RRIRVRPPRLPRPRPRPDQTPRP
shrunken log2 fold change: -0.002

RRIRVRPPRLPRPRPRPDSTPRP
shrunken log2 fold change: -0.0391

RRIRVRPPRLPRPRPRPDVAPRP
shrunken log2 fold change: -0.0974

RRIRVRPPRLPRPRPRPDVCPRP
shrunken log2 fold change: 0.0951

RRIRVRPPRLPRPRPRPDVPPRP
shrunken log2 fold change: -0.0976

RRIRVRPPRLPRPRPRPEAMPRP
shrunken log2 fold change: -0.0277

RRIRVRPPRLPRPRPRPECVPRP
shrunken log2 fold change: 0.399

RRIRVRPPRLPRPRPRPEDFPRP
shrunken log2 fold change: 0.0252

RRIRVRPPRLPRPRPRPEDMPRP
shrunken log2 fold change: -0.115

RRIRVRPPRLPRPRPRPEETPRP
shrunken log2 fold change: 0.00893

RRIRVRPPRLPRPRPRPEFTPRP
shrunken log2 fold change: -0.0269

RRIRVRPPRLPRPRPRPEGKPRP
shrunken log2 fold change: 0.217

RRIRVRPPRLPRPRPRPEGVPRP
shrunken log2 fold change: 0.907

RRIRVRPPRLPRPRPRPEHQPRP
shrunken log2 fold change: -0.477

RRIRVRPPRLPRPRPRPEIEPRP
shrunken log2 fold change: 0.173

RRIRVRPPRLPRPRPRPEIVPRP
shrunken log2 fold change: -0.0567

RRIRVRPPRLPRPRPRPEKNPRP
shrunken log2 fold change: 0.0805

RRIRVRPPRLPRPRPRPELAPRP
shrunken log2 fold change: 0.659

RRIRVRPPRLPRPRPRPELSPRP
shrunken log2 fold change: 0.119

RRIRVRPPRLPRPRPRPENHPRP
shrunken log2 fold change: -0.187

RRIRVRPPRLPRPRPRPENSPRP
shrunken log2 fold change: -0.522

RRIRVRPPRLPRPRPRPERSPRP
shrunken log2 fold change: 0.276

RRIRVRPPRLPRPRPRPESEPRP
shrunken log2 fold change: 0.0921

RRIRVRPPRLPRPRPRPESPPRP
shrunken log2 fold change: 0.232

RRIRVRPPRLPRPRPRPETAPRP
shrunken log2 fold change: 0.406

RRIRVRPPRLPRPRPRPETSPRP
shrunken log2 fold change: -0.369

RRIRVRPPRLPRPRPRPEVQPRP
shrunken log2 fold change: 0.148

RRIRVRPPRLPRPRPRPEWMPRP
shrunken log2 fold change: 0.0845

RRIRVRPPRLPRPRPRPEYKPRP
shrunken log2 fold change: -0.501

RRIRVRPPRLPRPRPRPFAIPRP
shrunken log2 fold change: -0.765

RRIRVRPPRLPRPRPRPFAMPRP
shrunken log2 fold change: -0.252

RRIRVRPPRLPRPRPRPFCAPRP
shrunken log2 fold change: 0.00539

RRIRVRPPRLPRPRPRPFCNPRP
shrunken log2 fold change: 0.0823

RRIRVRPPRLPRPRPRPFEWPRP
shrunken log2 fold change: -0.102

RRIRVRPPRLPRPRPRPFFIPRP
shrunken log2 fold change: -0.265

RRIRVRPPRLPRPRPRPFGGPRP
shrunken log2 fold change: -0.216

RRIRVRPPRLPRPRPRPFHLPRP
shrunken log2 fold change: 0.0337

RRIRVRPPRLPRPRPRPFIWPRP
shrunken log2 fold change: -0.0481

RRIRVRPPRLPRPRPRPFLVPRP
shrunken log2 fold change: -0.527

RRIRVRPPRLPRPRPRPFMYPRP
shrunken log2 fold change: -0.642

RRIRVRPPRLPRPRPRPFPVPRP
shrunken log2 fold change: -0.0106

RRIRVRPPRLPRPRPRPFQQPRP
shrunken log2 fold change: -0.014

RRIRVRPPRLPRPRPRPFQWPRP
shrunken log2 fold change: -0.126

RRIRVRPPRLPRPRPRPFRFPRP
shrunken log2 fold change: 0.0201

RRIRVRPPRLPRPRPRPFRRPRP
shrunken log2 fold change: -0.101

RRIRVRPPRLPRPRPRPFSGPRP
shrunken log2 fold change: -0.337

RRIRVRPPRLPRPRPRPFVEPRP
shrunken log2 fold change: -0.361

RRIRVRPPRLPRPRPRPFVHPRP
shrunken log2 fold change: -0.17

RRIRVRPPRLPRPRPRPFVQPRP
shrunken log2 fold change: -0.0696

RRIRVRPPRLPRPRPRPFYGPRP
shrunken log2 fold change: -0.127

RRIRVRPPRLPRPRPRPFYHPRP
shrunken log2 fold change: -0.502

RRIRVRPPRLPRPRPRPGFQPRP
shrunken log2 fold change: 0.302

RRIRVRPPRLPRPRPRPGFVPRP
shrunken log2 fold change: 0.0922

RRIRVRPPRLPRPRPRPGGEPRP
shrunken log2 fold change: 0.386

RRIRVRPPRLPRPRPRPGISPRP
shrunken log2 fold change: -0.49

RRIRVRPPRLPRPRPRPGIWPRP
shrunken log2 fold change: 0.339

RRIRVRPPRLPRPRPRPGKEPRP
shrunken log2 fold change: -0.0126

RRIRVRPPRLPRPRPRPGKYPRP
shrunken log2 fold change: -0.493

RRIRVRPPRLPRPRPRPGLNPRP
shrunken log2 fold change: -0.00582

RRIRVRPPRLPRPRPRPGMAPRP
shrunken log2 fold change: 0.183

RRIRVRPPRLPRPRPRPGMIPRP
shrunken log2 fold change: -0.2

RRIRVRPPRLPRPRPRPGMMPRP
shrunken log2 fold change: 0.135

RRIRVRPPRLPRPRPRPGNAPRP
shrunken log2 fold change: 0.133

RRIRVRPPRLPRPRPRPGNGPRP
shrunken log2 fold change: 0.023

RRIRVRPPRLPRPRPRPGNMPRP
shrunken log2 fold change: 0.151

RRIRVRPPRLPRPRPRPGPCPRP
shrunken log2 fold change: -0.128

RRIRVRPPRLPRPRPRPGQPPRP
shrunken log2 fold change: 0.0218

RRIRVRPPRLPRPRPRPGRPPRP
shrunken log2 fold change: 0.63

RRIRVRPPRLPRPRPRPGRVPRP
shrunken log2 fold change: 0.405

RRIRVRPPRLPRPRPRPGSDPRP
shrunken log2 fold change: -0.00601

RRIRVRPPRLPRPRPRPGTAPRP
shrunken log2 fold change: 0.136

RRIRVRPPRLPRPRPRPGTGPRP
shrunken log2 fold change: 0.148

RRIRVRPPRLPRPRPRPGVIPRP
shrunken log2 fold change: 0.0193

RRIRVRPPRLPRPRPRPGVKPRP
shrunken log2 fold change: 0.303

RRIRVRPPRLPRPRPRPGVLPRP
shrunken log2 fold change: 0.0138

RRIRVRPPRLPRPRPRPGYIPRP
shrunken log2 fold change: -0.608

RRIRVRPPRLPRPRPRPHANPRP
shrunken log2 fold change: 0.25

RRIRVRPPRLPRPRPRPHCLPRP
shrunken log2 fold change: -1.63

RRIRVRPPRLPRPRPRPHDCPRP
shrunken log2 fold change: -0.162

RRIRVRPPRLPRPRPRPHDSPRP
shrunken log2 fold change: 0.0311

RRIRVRPPRLPRPRPRPHFFPRP
shrunken log2 fold change: -0.0497

RRIRVRPPRLPRPRPRPHFIPRP
shrunken log2 fold change: -0.304

RRIRVRPPRLPRPRPRPHFQPRP
shrunken log2 fold change: -0.154

RRIRVRPPRLPRPRPRPHGQPRP
shrunken log2 fold change: -0.0326

RRIRVRPPRLPRPRPRPHGYPRP
shrunken log2 fold change: -0.298

RRIRVRPPRLPRPRPRPHIEPRP
shrunken log2 fold change: -0.763

RRIRVRPPRLPRPRPRPHIHPRP
shrunken log2 fold change: -0.545
